Laboratory results published in PMC9877012.

Assays:
[1] = target: Poly-L-lysine hydrobromide (MW, 70,000-150,000 Da)
[2] = target: Poly-L-lysine hydrobromide (MW, 70,000-150,000 Da); test: co-sedimentation; precipitation rate of LOX: LOX mixed with PLL, centrifuged at 18,000 x g for 20 min at 25 °C, LOX in the supernatant by absorbance at 280 nm; 5 µM LOX, 1 mM PLL, 5-20 mM (NH4)2SO4

relative enzyme activity of LOX (0.1 µM) with 0.02 mM PLL against LOX without PLL, 0-10 mM (NH4)2SO4 (about 15 times without and about five times with 10 mM ammonium sulfate) [1]: 15 fold | percent of LOX in the droplets [2]: 90%
B1: L-lactate oxidase (enzyme)
chain: MNNNDIEYNAPSEIKYIDVVNTYDLEEEASKVVPHGGFNYIAGASGDEWTKRANDRAWKHKLLYPRLAQDVEAPDTSTEILGHKIKAPFIMAPIAAHGLAHTTKEAGTARAVSEFGTIMSISAYSGATFEEISEGLNGGPRWFQIYMAKDDQQNRDILDEAKSDGATAIILTADSTVSGNRDRDVKNKFVYPFGMPIVQRYLRGTAEGMSLNNIYGASKQKISPRDIEEIAGHSGLPVFVKGIQHPEDADMAIKRGASGIWVSNHGARQLYEAPGSFDTLPAIAERVNKRVPIVFDSGVRRGEHVAKALASGADVVALGRPVLFGLALGGWQGAYSVLDYFQKDLTRVMQLTGSQNVEDLKGLDLFDNPYGYEY
